Assay results published in IntAct's records for PubMed 28515320.

B1: Nectin-2 (Homo sapiens), Q92692 (parent)
chain: MARAAALLPSRSPPTPLLWPLLLLLLLETGAQDVRVQVLPEVRGQLGGTVELPCHLLPPVPGLYISLVTWQRPDAPANHQNVAAFHPKMGPSFPSPKPGSERLSFVSAKQSTGQDTEAELQDATLALHGLTVEDEGNYTCEFATFPKGSVRGMTWLRVIAKPKNQAEAQKVTFSQDPTTVALCISKEGRPPARISWLSSLDWEAKETQVSGTLAGTVTVTSRFTLVPSGRADGVTVTCKVEHESFEEPALIPVTLSVRYPPEVSISGYDDNWYLGRTDATLSCDVRSNPEPTGYDWSTTSGTFPTSAVAQGSQLVIHAVDSLFNTTFVCTVTNAVGMGRAEQVIFVRETPNTAGAGATGGIIGGIIAAIIATAVAATGILICRQQRKEQTLQGAEEDEDLEGPPSYKPPTPKAKLEAQEMPSQLFTLGASEHSPLKTPYFDAGASCTEQEMPRYHELPTLEERSGPLHPGATSLGSPIPVPPGPPAVEDVSLDLEDEEGEEEEEYLDKINPIYDALSYSSPSDSYQGKGFVMSRAMYV
partner: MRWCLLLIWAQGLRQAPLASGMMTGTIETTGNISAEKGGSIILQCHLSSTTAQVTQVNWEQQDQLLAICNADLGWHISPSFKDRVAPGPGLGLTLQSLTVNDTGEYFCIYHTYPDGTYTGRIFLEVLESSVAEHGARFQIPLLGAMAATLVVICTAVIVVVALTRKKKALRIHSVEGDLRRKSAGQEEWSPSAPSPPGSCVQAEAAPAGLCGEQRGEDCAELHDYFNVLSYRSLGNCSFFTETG

Variants of: B1
Details: with tigit_human TIGIT

| Variant | effect of a mutation on the interaction |
| --- | --- |
| F145A | disrupting interaction strength |
| E141A | with no effect |
| G90A | decreasing interaction strength |
| E101A | with no effect |
| M89A | decreasing interaction strength |
| L67Q | decreasing interaction strength |
| L67A | decreasing interaction strength |
| H86A | decreasing interaction strength |
| A83R | decreasing interaction strength |
| A83V | decreasing interaction strength |
